Consider one sequence from patent publication US9605266.

This series has as its target C-C chemokine receptor type 5 (CCR5) (Homo sapiens) (UniProt P51681). Description: flow. The following applies: 2'-F pyrimidines (2'-F-C, 2'-F-U), negative control.

C-C chemokine receptor type 5 (CCR5) (Homo sapiens), sequence (P51681 whole entry): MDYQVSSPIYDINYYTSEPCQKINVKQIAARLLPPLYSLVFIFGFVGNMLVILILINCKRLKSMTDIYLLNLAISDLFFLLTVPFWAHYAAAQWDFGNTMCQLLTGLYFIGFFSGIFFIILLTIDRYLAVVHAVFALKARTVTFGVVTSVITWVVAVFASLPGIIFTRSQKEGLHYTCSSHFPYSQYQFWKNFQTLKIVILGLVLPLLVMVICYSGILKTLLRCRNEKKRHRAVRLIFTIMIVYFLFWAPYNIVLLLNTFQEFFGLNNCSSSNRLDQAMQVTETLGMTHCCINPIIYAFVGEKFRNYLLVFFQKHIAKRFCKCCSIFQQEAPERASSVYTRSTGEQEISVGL

Turning to “GGGAGGACGAUGCGGNNNNNNNNNNNNNNNNNNNNCAGACGACUCGCCCGA [0-RNA pool (starting library)]”, the binding signal (% Cy3-positive cells) (untreated 0.076%) is 0.808 and the binding signal (% Cy3-positive cells) (untreated 0.191%) worked out at 7.63.
